According to patent US6037450:

Biological target: human protein C (human) (UniProt P04070)
Assay: protein C affinity column (protein C held on HPC4 mAb-AffiGel-10, 3 mM CaCl2, 0.6 mM MgCl2); EPCR antigen in the fractions measured by ELISA

Chain of UniProt P04070 (P04070 43-461): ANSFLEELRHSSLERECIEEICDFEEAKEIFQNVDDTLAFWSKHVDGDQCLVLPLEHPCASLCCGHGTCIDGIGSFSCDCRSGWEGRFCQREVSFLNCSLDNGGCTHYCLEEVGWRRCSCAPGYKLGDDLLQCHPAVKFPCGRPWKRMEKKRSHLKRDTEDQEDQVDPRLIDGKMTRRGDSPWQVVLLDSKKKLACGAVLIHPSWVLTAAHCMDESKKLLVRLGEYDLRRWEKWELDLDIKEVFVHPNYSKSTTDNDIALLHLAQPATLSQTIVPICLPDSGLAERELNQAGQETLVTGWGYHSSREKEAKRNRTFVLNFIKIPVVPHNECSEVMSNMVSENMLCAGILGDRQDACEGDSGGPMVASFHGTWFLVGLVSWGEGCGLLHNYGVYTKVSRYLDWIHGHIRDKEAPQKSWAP

B1: plasma EPCR (soluble endothelial cell protein C/activated protein C receptor purified from human citrated plasma) (receptor)
chain: SQDASDGLQRLHMLQISYFRDPYHVWYQGNASLGGHLTHVLEGPDTNTTIIQLQPLQEPESWARTQSGLQSYLLQFHGLVRLVHQERTLAFPLTIRCFLGCELPPEGSRAHVFFEVAVNGSSFVSFRPERALWQADTQVTSGVVTFTLQQLNAYNRTRYELREFLEDTCVQYVQKHISAENTKG
percent of applied antigen bound: > 98%
